# Target: acetylcholine receptor
# Test: SPR, AchR immobilized on chip, peptide at 10 uM
row,Binding affinity [RU],Binder
1,139,KQRCRR [6mer-2-57]
2,139,RRLCRK [6mer-2-32]
3,125,RSYYRR [6mer-2-4]
4,135,RSFSKK [6mer-2-19]
5,121,KGVCRR [6mer-2-16]
6,139,KQFLKK [6mer-2-51]
7,121,RSLTKK [6mer-2-45]
8,146,RVITKR [6mer-2-43]
9,125,KSLSRR [6mer-2-53]
10,153,RGRQKK [6mer-2-14]
11,139,KLICRK [6mer-2-9]
12,136,KRQRKK [6mer-2-52]
13,148,KVYSRK [6mer-2-3]
14,153,RRYRKK [6mer-2-40]
15,125,RSQSKR [6mer-2-50]
16,124,RQIRKK [6mer-2-22]
17,123,RQYTRK [6mer-2-13]
18,142,KQLCKR [6mer-2-41]
19,124,KVFRRK [6mer-2-34]

row,Binding affinity [RU],Binder
1,154,RLRCRK [6mer-2-49]
2,153,RRFRKK [6mer-2-48]
3,145,KSVRRK [6mer-2-44]
4,126,KLLSKR [6mer-2-42]
5,142,RSQRKR [6mer-2-29]
6,121,RWRRKK [6mer-2-26]
7,135,KSLQKK [6mer-2-8]
8,147,RQFQRK [6mer-2-12]
9,121,RQYQRR [6mer-2-11]
10,148,KLQSRR [6mer-2-47]
11,137,RWRYRK [6mer-2-39]
12,125,RLFYKK [6mer-2-55]
13,141,RLFTRK [6mer-2-21]
14,148,RWVRKK [6mer-2-23]
15,148,RWISRK [6mer-2-35]
16,131,RRLQKK [6mer-2-36]
17,142,KVLSRK [6mer-2-28]
18,139,RWYLKR [6mer-2-2]
19,142,RQFRKK [6mer-2-33]

row,Binding affinity [RU],Binder
1,124,RWVSKR [6mer-2-5]
2,131,RRRLKK [6mer-2-1]
3,122,KSICRR [6mer-2-6]
4,153,KLYLKR [6mer-2-46]
5,121,KSYQRK [6mer-2-31]
6,126,KSRCRK [6mer-2-7]
7,133,KQVRKR [6mer-2-15]
8,124,KVFSKK [6mer-2-10]
9,148,KLLYRK [6mer-2-37]
10,124,KGRRRR [6mer-2-54]
11,139,RQFYKK [6mer-2-30]
12,137,RVQTRR [6mer-2-20]
13,136,RSYYKR [6mer-2-38]
14,124,RSILRR [6mer-2-18]
15,142,RWVTRR [6mer-2-17]
16,149,RSQLRR [6mer-2-56]
17,141,KGIQRK [6mer-2-24]
18,148,KQVQKR [6mer-2-25]
19,128,KVIRRK [6mer-2-27]
